Among the data in article PMC9316817, “Brain Delivery of IGF1R5, a Single-Domain Antibody Targeting Insulin-like Growth Factor-1 Receptor” (Pharmaceutics, 2022) are Kd, koff and kon values, retold here.

For experiment [1], the target named is Human IGF1R ectodomain (UniProt P08069). In words: SPR; Biacore 3000, multi-cycle kinetics; IGF1R ectodomains amine coupled on CM5 chips (about 1500-2000 RU); VHHs in flow at 20 µL/min, 300 s association, 300 s dissociation; 0.25-10 nM (IGF1R5), 1-25 nM (IGF1R5-H2); HBS-EP pH 7.4, 25 °C; 1:1 binding model. A general note: In SPR one partner is held on a chip, and binding of the other changes the refractive index at the surface.
Chain of Human IGF1R ectodomain (P08069 741-935): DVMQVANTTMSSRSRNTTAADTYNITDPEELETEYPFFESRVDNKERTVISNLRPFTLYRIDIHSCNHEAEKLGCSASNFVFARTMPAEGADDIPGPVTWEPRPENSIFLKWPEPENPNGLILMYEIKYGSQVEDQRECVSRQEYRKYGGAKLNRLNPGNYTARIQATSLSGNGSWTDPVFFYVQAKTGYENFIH

Experiment [2] addresses mouse IGF1R ectodomain (mouse) (UniProt Q60751). Described as above.
Experiment [3] deals with T1, rhesus IGF1R ectodomain (aa31-932) (Macaca mulatta, UniProt I2CWY3).
T1 construct: insulin-like growth factor-1 receptor, rhesus, ectodomain, aa31-932; source: NRC Montreal
T1 sequence (I2CWY3 entry or part of it): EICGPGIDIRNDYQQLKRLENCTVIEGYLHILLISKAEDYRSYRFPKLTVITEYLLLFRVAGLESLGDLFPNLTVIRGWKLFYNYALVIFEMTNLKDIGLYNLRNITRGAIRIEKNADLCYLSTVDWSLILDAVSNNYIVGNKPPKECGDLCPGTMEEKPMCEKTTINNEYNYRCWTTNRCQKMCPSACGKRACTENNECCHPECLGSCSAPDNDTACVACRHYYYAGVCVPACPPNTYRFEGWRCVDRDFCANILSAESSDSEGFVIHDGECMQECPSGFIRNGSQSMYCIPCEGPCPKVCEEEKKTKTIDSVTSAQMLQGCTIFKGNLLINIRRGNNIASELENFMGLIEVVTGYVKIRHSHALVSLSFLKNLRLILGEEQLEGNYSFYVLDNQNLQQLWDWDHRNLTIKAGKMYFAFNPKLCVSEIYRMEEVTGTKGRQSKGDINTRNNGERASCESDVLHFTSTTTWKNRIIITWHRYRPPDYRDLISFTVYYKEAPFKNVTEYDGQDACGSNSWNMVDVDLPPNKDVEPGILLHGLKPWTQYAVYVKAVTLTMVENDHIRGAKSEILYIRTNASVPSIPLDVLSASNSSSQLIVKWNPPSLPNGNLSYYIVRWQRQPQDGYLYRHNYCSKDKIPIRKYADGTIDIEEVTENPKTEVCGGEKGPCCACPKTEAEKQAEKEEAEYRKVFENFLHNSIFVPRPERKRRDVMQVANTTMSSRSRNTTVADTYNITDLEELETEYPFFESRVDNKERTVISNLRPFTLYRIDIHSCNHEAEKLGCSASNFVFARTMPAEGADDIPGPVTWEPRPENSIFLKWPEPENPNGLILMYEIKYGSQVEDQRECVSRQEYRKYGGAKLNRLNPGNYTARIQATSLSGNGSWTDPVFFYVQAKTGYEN
In words: SPR; Biacore T200, single-cycle kinetics (rhesus IGF1R); IGF1R ectodomain amine coupled on CM5 chip; VHHs in flow at 40 µL/min, 180 s association, 600 s dissociation; 0.25-10 nM (IGF1R5), 1-25 nM (IGF1R5-H2); HBS-EP pH 7.4, 25 °C; 1:1 binding model. The following applies: both partners purified.

For experiment [4], the target named is Human IGF1R ectodomain (UniProt P08069). Kind of experiment: SPR; acidic pH: HBS-EP MES buffer pH 5.6, 37 °C; IGF1R ectodomains amine coupled on CM5 chips; VHHs in flow, 0.25-10 nM (IGF1R5), 1-50 nM (IGF1R5-H2); 1:1 binding model.
For experiment [5], the target named is mouse IGF1R ectodomain (mouse) (UniProt Q60751). The description is as above.
Chain of mouse IGF1R ectodomain (mouse) (Q60751 742-936): as the sequence (P08069 741-935) above, with A19V, L31F, Q185P, G189T, I194M counted along it
The target of experiment [6] is T2, rat IGF1R ectodomain (aa31-936) (Rattus norvegicus, UniProt P24062).
T2 construct: insulin-like growth factor-1 receptor, rat, ectodomain, aa31-936; source: NRC Montreal
T2 sequence (P24062 31-936): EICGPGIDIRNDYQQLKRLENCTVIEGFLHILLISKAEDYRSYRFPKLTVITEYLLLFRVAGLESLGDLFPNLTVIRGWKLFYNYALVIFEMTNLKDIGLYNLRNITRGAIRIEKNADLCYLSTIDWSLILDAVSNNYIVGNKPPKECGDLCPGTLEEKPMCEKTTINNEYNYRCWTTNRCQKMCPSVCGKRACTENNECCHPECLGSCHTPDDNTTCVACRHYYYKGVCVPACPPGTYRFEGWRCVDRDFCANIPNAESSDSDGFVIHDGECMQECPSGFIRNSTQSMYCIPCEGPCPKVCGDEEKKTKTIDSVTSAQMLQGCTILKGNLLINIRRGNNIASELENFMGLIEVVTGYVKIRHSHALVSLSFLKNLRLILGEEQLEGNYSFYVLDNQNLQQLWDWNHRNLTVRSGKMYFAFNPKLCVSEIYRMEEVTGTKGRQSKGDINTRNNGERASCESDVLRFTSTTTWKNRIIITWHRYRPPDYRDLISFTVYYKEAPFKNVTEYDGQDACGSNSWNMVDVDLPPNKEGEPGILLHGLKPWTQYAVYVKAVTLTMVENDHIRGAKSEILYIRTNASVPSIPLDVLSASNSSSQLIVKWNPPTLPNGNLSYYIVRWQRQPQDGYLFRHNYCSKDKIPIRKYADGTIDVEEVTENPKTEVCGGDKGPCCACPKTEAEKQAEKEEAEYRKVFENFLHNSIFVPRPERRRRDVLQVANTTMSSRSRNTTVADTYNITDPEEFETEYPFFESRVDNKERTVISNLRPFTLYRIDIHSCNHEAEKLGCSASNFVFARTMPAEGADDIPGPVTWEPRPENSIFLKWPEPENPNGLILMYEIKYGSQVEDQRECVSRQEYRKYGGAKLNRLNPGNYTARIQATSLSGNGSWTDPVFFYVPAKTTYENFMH
In words: SPR; Biacore 3000, multi-cycle kinetics; IGF1R ectodomains amine coupled on CM5 chips (about 1500-2000 RU); VHHs in flow at 20 µL/min, 300 s association, 300 s dissociation; 0.25-10 nM (IGF1R5), 1-25 nM (IGF1R5-H2); HBS-EP pH 7.4, 25 °C; 1:1 binding model. The following applies: both partners purified.

B1: IGF1R5-H2, humanized variant of the IGF1R5 single-domain antibody (VHH)
VHH: QVQLVESGGGLVQPGGSLRLSCAASGRTIDNYAMAWVRQAPGKGLEWVATIDWGDGGTRYANSVKGRFTISRDNSKNTMYLQMNSLRAEDTAVYYCAMARQSRVNLDVARYDYWGQGTLVTVSS
notes: CDRs of m1 grafted on a human VH3 germline framework, 4 back-mutations in the Vernier zone, no camelizing back-mutations in FR2, CDR2 point mutation A57T; Kabat numbering; Changes are stated against the camelid IGF1R5; also called humanized IGF1R5-H2; source: produced and purified as described for the llama sdAbs (TG1 Escherichia coli, HiTrap Chelating HP; preparative SEC just before SPR)
Broadly, the Kd is a measure of binding affinity in units of concentration. Broadly, the koff is the rate constant with which the complex falls apart. A high value points to a short-lived complex. By kon is commonly meant a measure of how fast the partners come together. Low values mean slower complex formation, high ones faster complex formation. As for B1, the Kd in experiment [1] came to 7.6 nM; in experiment [2], 9.1 nM; in experiment [3], 17 nM; in experiment [4], 160 nM; in experiment [5], 150 nM; in experiment [6] it was 11 nM. The off-rate (koff) in experiment [1] came out at 0.0029 s⁻¹; in experiment [2] it was 0.0021 s⁻¹; in experiment [3] it was 0.0038 s⁻¹; in experiment [4], 0.034 s⁻¹; in experiment [5], 0.043 s⁻¹; in experiment [6] it was 0.0026 s⁻¹. Further, the kon in experiment [1] came out at 380000 M⁻¹ s⁻¹; in experiment [2] it was 230000 M⁻¹ s⁻¹; in experiment [3], 230000 M⁻¹ s⁻¹; in experiment [4], 210000 M⁻¹ s⁻¹; in experiment [5], 290000 M⁻¹ s⁻¹; in experiment [6] it was 230000 M⁻¹ s⁻¹.

B2: IGF1R5 single-domain antibody (camelid VHH against insulin-like growth factor-1 receptor) (VHH)
VHH: QVKLEESGGGLVQAGGSLRLSCAASGRTIDNYAMAWSRQAPGKDREFVATIDWGDGGARYANSVKGRFTISRDNAKGTMYLQMNNLEPEDTAVYSCAMARQSRVNLDVARYDYWGQGTQVTVSS
notes: Monomeric VHH fraction isolated by SEC was used for SPR; Isolated from a phage display library of a llama immunized with the extracellular domain of human IGF1R (933 amino acids); also called wild-type IGF1R5; IGF1R5 sdAb; source: TG1 Escherichia coli, purified (HiTrap Chelating HP; preparative SEC on Superdex S75 Increase just before SPR)
Consider B2, for which the Kd amounted to 0.64 nM in experiment [1]; 1.1 nM in experiment [2]; 0.4 nM in experiment [3]; 4 nM in experiment [4]; 4.8 nM in experiment [5]; 1.1 nM in experiment [6]. Also, the koff in experiment [1] is 0.00034 s⁻¹; in experiment [2] it was 0.0003 s⁻¹; in experiment [3], 0.00059 s⁻¹; in experiment [4], 0.0028 s⁻¹; in experiment [5], 0.0028 s⁻¹; in experiment [6] it was 0.00038 s⁻¹. In addition, the kon in experiment [1] is 530000 M⁻¹ s⁻¹; in experiment [2], 260000 M⁻¹ s⁻¹; in experiment [3] it was 1.5e+06 M⁻¹ s⁻¹; in experiment [4] it was 690000 M⁻¹ s⁻¹; in experiment [5], 590000 M⁻¹ s⁻¹; in experiment [6], 340000 M⁻¹ s⁻¹.
